# Laboratory results reported in US20230220080A1 (EPIMAB BIOTHERAPEUTICS, published 2023).
# Tests used:
# [1] = biological target: T1, CD3 on the cell surface of Jurkat cells (human, UniProt P07766 23-207); experiment: FACS on Jurkat cells, 100 nM
# T1 construct: whole, on cells; CD3 is a complex of several chains; also called CD3 (Jurkat)
# [2] = biological target: membrane EGFR on cells (human, UniProt P00533 25-1210); experiment: cell-based or functional assay
# [3] = biological target: Cyno EGFR (cynomolgus, UniProt A0A2K5WK39 25-645); experiment: protein based binding; method not stated
# [4] = biological target: T2, human EGFR, recombinant protein (human, UniProt P00533 25-645); experiment: protein based binding; method not stated
# T2 construct: also called hEGFR
# [5] = biological target: T3, c-Met, recombinant protein (human, UniProt P08581 25-932, limits assumed); experiment: SPR
# T3 construct: also called human cMet; cMet-his
# [6] = biological target: T4, human PD-L1, recombinant protein (human, UniProt Q9NZQ7 19-239, limits assumed); experiment: SPR
# T4 construct: also called rhPD-L1; PD-L1-his
# [7] = biological target: T2, human EGFR, recombinant protein; experiment: method not stated
# [8] = biological target: T5, CD22 on Raji and Daudi cells (human, UniProt P20273); experiment: FACS on Raji cells, Alexa Fluor 488 anti-human IgG1, MFI; the curve reaches only about 130 MFI
# T5 construct: on the cell surface of the human B cell lines Raji and Daudi; the sheet names only the cell lines (Raji, Daudi); CD22 is the target that the text gives for Epratuzumab
# [9] = biological target: IGF1R (UniProt P08069 31-932, limits assumed); experiment: method not stated
# [10] = biological target: T6, hPD1-Fc (human, UniProt Q15116 25-167); experiment: SPR
# T6 construct: not shown: Fc part not described
# [11] = biological target: T4, human PD-L1, recombinant protein; experiment: SPR Biacore X100, antigen immobilised on CM5, Ig injected
# [12] = biological target: T4, human PD-L1, recombinant protein; experiment: method not stated
# [13] = biological target: T4, human PD-L1, recombinant protein; experiment: method not stated; remark: listed apart in the source
# [14] = biological target: Cyno cMet (cynomolgus, UniProt A0A2K5UM36 25-932); experiment: protein based binding; method not stated
# [15] = biological target: T3, c-Met, recombinant protein; experiment: method not stated
# [16] = biological target: T3, c-Met, recombinant protein; experiment: protein based binding; method not stated
# [17] = biological target: VEGF (UniProt P15692-4 27-191, limits assumed); experiment: method not stated
# [18] = biological target: T1, CD3 on the cell surface of Jurkat cells; experiment: FACS on Jurkat cells, Alexa Fluor 488 anti-human IgG1, MFI
# [19] = biological target: T2, human EGFR, recombinant protein; experiment: method not stated; remark: listed apart in the source
# T3 sequence (P08581 25-932 limits assumed): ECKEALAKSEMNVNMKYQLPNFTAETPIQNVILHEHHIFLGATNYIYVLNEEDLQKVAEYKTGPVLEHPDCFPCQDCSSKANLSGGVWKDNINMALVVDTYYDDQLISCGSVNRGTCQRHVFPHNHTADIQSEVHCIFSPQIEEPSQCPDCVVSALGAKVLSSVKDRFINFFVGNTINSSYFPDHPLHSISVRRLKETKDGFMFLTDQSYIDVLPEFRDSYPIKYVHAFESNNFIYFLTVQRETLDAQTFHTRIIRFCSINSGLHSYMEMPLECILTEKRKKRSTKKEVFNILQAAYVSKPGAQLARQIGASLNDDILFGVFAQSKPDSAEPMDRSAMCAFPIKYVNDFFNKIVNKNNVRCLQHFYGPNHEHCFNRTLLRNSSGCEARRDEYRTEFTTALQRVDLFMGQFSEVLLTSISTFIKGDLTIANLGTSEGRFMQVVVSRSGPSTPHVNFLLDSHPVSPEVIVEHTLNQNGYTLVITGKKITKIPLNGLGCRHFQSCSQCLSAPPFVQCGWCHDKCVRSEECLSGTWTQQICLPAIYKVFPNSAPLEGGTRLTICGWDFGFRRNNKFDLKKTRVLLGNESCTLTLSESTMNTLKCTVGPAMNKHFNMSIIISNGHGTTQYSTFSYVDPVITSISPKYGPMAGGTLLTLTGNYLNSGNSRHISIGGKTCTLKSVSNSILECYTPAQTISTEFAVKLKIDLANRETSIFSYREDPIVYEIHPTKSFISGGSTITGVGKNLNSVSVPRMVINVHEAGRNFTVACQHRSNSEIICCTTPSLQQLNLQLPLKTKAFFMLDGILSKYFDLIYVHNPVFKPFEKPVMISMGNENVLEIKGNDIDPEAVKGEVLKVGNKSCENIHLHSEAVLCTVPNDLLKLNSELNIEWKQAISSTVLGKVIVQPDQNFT
# T4 sequence (Q9NZQ7 19-239 limits assumed): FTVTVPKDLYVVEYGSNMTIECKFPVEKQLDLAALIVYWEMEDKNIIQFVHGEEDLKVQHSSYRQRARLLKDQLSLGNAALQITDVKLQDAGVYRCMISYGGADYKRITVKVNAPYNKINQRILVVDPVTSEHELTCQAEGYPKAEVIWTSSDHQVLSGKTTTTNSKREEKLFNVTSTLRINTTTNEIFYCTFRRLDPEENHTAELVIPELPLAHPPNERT
# T6 sequence (Q15116 25-167): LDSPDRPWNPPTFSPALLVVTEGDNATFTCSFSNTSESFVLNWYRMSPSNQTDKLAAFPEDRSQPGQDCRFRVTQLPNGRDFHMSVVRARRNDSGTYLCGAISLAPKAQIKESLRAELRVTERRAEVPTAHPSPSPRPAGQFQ
# Cyno cMet, sequence (A0A2K5UM36 entry or part of it limits assumed): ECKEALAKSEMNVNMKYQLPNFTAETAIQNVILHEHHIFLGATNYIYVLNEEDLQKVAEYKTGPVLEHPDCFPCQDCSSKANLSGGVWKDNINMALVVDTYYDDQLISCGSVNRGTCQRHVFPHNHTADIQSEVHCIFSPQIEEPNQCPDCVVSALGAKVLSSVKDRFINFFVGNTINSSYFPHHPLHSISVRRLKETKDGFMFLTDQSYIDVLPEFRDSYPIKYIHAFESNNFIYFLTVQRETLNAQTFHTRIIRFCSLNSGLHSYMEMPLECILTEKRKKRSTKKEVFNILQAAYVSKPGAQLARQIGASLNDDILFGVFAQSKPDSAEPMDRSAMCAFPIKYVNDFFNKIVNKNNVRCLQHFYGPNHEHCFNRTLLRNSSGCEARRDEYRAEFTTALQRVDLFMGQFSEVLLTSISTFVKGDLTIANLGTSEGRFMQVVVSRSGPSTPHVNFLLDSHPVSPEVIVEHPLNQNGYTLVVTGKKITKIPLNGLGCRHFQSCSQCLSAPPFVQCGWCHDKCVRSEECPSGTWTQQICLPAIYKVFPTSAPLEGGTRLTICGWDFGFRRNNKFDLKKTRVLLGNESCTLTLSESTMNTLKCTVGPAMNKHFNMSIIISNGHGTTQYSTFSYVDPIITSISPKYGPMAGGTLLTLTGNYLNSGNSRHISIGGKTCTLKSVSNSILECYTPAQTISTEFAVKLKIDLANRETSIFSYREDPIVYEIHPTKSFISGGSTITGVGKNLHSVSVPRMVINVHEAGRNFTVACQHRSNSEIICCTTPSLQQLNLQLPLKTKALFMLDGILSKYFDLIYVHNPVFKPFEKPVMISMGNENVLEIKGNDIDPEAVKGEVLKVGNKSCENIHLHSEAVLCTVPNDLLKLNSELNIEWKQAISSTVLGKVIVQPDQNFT
# VEGF, sequence (P15692 other isoform, or with tags, fused parts or gaps limits assumed): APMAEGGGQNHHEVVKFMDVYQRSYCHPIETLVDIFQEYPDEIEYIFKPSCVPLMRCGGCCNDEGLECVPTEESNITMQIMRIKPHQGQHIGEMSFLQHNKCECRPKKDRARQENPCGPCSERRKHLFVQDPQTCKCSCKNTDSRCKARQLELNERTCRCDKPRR
binder,measurement,setting,value
"OKT3/Ofatumumab FIT7-Ig (bispecific antibody, human IgG1, kappa, no linker; also called anti-CD3/CD20 FIT-Ig) chain 1: not shown chain 2: not shown chain 3: not shown",Binding Intensity by FACS (MFI),[1],159 MFI
"FIT013a cMet (h1332 (13.3.2L-A91T,H-42K,S97T))/EGFR (panitumumab) (bispecific antibody, human IgG1, kappa, leader left out; also called FIT013a (c-met/EGFR)) chain 1: not shown chain 2: QVQLVQSGAEVKKPGASVKVSCKASGYTFTSYGFSWVRQAPGQGLEWMGWISASNGNTYYAQKLQGRVTMTTDTSTSTAYMELRSLRSDDTAVYYCARVYADYADYWGQGTLVTVSSASTKGPSVFPLAPSSKSTSGGTAALGCLVKDYFPEPVTVSWNSGALTSGVHTFPAVLQSSGLYSLSSVVTVPSSSLGTQTYICNVNHKPSNTKVDKKVEPKSC chain 3: not shown","EGFR Depletion (%) on H441 cell, FACS",[2],65.9%
same,Kd,[3],0.577 nM
same,Kd,[4],0.534 nM
"FIT023a cMet (h1332)/PD-L1 (1B12) (bispecific antibody, human IgG1, kappa, leader left out; also called FIT023a-Ig) chain 1: not shown chain 2: QVQLVQSGAEVKKPGASVKVSCKASGYTFTSYGFSWVRQAPGQGLEWMGWISASNGNTYYAQKLQGRVTMTTDTSTSTAYMELRSLRSDDTAVYYCARVYADYADYWGQGTLVTVSSASTKGPSVFPLAPSSKSTSGGTAALGCLVKDYFPEPVTVSWNSGALTSGVHTFPAVLQSSGLYSLSSVVTVPSSSLGTQTYICNVNHKPSNTKVDKKVEPKSC chain 3: not shown",Kd,[5],1.49 nM
same,Kd,[6],0.731 nM
"FIT13a-Ig cMet (h1332)/EGFR (panitumumab) (bispecific antibody, human IgG1, kappa, also called FIT-Ig13a) chain 1: not shown chain 2: QVQLVQSGAEVKKPGASVKVSCKASGYTFTSYGFSWVRQAPGQGLEWMGWISASNGNTYYAQKLQGRVTMTTDTSTSTAYMELRSLRSDDTAVYYCARVYADYADYWGQGTLVTVSSASTKGPSVFPLAPSSKSTSGGTAALGCLVKDYFPEPVTVSWNSGALTSGVHTFPAVLQSSGLYSLSSVVTVPSSSLGTQTYICNVNHKPSNTKVDKKVEPKSC chain 3: not shown",Kd,[7],1.52 nM
"Epratuzumab (antibody, V domains shown, also called CD22 antibody Epratuzumab) VH: QVQLVQSGAEVKKPGSSVKVSCKASGYTFTSYWLHWVRQAPGQGLEWIGYINPRNDYTEYNQNFKDKATITADESTNTAYMELSSLRSEDTAFYFCARRDITTFYWGQGTTVTVSS VL: DIQLTQSPSSLSASVGDRVTMSCKSSQSVLYSANHKNYLAWYQQKPGKAPKLLIYWASTRESGVPSRFSGSGSGTDFTFTISSLQPEDIATYYCHQYLSSWTFGGGTKLEIK",EC50,[8],13.2 nM
"OKT3/Ofatumumab FIT8-Ig (bispecific antibody, human IgG1, kappa, GGGGSGS linker) chain 1: not shown chain 2: not shown chain 3: not shown",Binding Intensity by FACS (MFI),[1],211 MFI
"FIT016a HER3 (Patritumab)/IGF1R (Figitumumab) (bispecific antibody, human IgG1, kappa, leader left out) chain 1: not shown chain 2: QVQLQQWGAGLLKPSETLSLTCAVYGGSFSGYYWSWIRQPPGKGLEWIGEINHSGSTNYNPSLKSRVTISVETSKNQFSLKLSSVTAADTAVYYCARDKWTWYFDLWGRGTLVTVSSASTKGPSVFPLAPSSKSTSGGTAALGCLVKDYFPEPVTVSWNSGALTSGVHTFPAVLQSSGLYSLSSVVTVPSSSLGTQTYICNVNHKPSNTKVDKKVEPKSC chain 3: DIQMTQFPSSLSASVGDRVTITCRASQGIRNDLGWYQQKPGKAPKRLIYAASRLHRGVPSRFSGSGSGTEFTLTISSLQPEDFATYYCLQHNSYPCSFGQGTKLEIKRTVAAPSVFIFPPSDEQLKSGTASVVCLLNNFYPREAKVQWKVDNALQSGNSQESVTEQDSKDSTYSLSSTLTLSKADYEKHKVYACEVTHQGLSSPVTKSFNRGEC",Kd,[9],2.72 nM
"FIT022a HER3 (patritumab)/PD-1 (nivolumab) (bispecific antibody, human IgG1, kappa, leader left out; also called FIT022a-Ig) chain 1: not shown chain 2: QVQLQQWGAGLLKPSETLSLTCAVYGGSFSGYYWSWIRQPPGKGLEWIGEINHSGSTNYNPSLKSRVTISVETSKNQFSLKLSSVTAADTAVYYCARDKWTWYFDLWGRGTLVTVSSASTKGPSVFPLAPSSKSTSGGTAALGCLVKDYFPEPVTVSWNSGALTSGVHTFPAVLQSSGLYSLSSVVTVPSSSLGTQTYICNVNHKPSNTKVDKKVEPKSC chain 3: not shown",Kd,[10],2.34 nM
"PD-L1 antibody 1B12 (antibody, V domains shown, parental mAb) VH: QVQLVQSGAEVKKPGSSVKVSCKTSGDTFSSYAISWVRQAPGQGLEWMGGIIPIFGRAHYAQKFQGRVTITADESTSTAYMELSSLRSEDTAVYFCARKFHFVSGSPFGMDVWGQGTTVTVSS VL: not shown",Kd,[6],0.708 nM
same,Kd,[11],0.402 nM
same,Kd,[12],9.08 nM
"EGFR antibody Panitumumab (antibody, V domains shown, parental mAb) VH: QVQLQESGPGLVKPSETLSLTCTVSGGSVSSGDYYWTWIRQSPGKGLEWIGHIYYSGNTNYNPSLKSRLTISIDTSKTQFSLKLSSVTAADTAIYYCVRDRVTGAFDIWGQGTMVTVSS VL: DIQMTQSPSSLSASVGDRVTITCQASQDISNYLNWYQQKPGKAPKLLIYDASNLETGVPSRFSGSGSGTDFTFTISSLQPEDIATYFCQHFDHLPLAFGGGTKVEIK",Kd,[3],0.362 nM
"PD-L1 antibody 10A5 (antibody, V domains shown, parental mAb) VH: QVQLVQSGAEVKKPGASVKVSCKASGYTFTSYDVHWVRQAPGQRLEWMGWLHADTGITKFSQKFQGRVTITRDTSASTAYMELSSLRSEDTAVYYCARERIQLWFDYWGQGTLVTVSS VL: DIQMTQSPSSLSASVGDRVTITCRASQGISSWLAWYQQKPEKAPKSLIYAASSLQSGVPSRFSGSGSGTDFTLTISSLQPEDFATYYCQQYNSYPYTFGQGTKLEIK",Kd,[13],0.735 nM
"cMet antibody h1332 (13.3.2L-A91T,H-42K,S97T) (antibody, V domains shown, parental mAb; also called mAb-h1332) VH: QVQLVQSGAEVKKPGASVKVSCKASGYTFTSYGFSWVRQAPGQGLEWMGWISASNGNTYYAQKLQGRVTMTTDTSTSTAYMELRSLRSDDTAVYYCARVYADYADYWGQGTLVTVSS VL: DIQMTQSPSSVSASVGDRVTITCRASQGINTWLAWYQQKPGKAPKLLIYAASSLKSGVPSRFSGSGSGTDFTLTISSLQPEDFATYYCQQANSFPLTFGGGTKVEIK","EGFR Depletion (%) on H441 cell, FACS",[2],0%
same,Kd,[14],4.53 nM
same,Kd,[5],2.19 nM
same,Kd,[15],2.63 nM
same,Kd,[16],1.27 nM
"IGF-1R antibody Figitumumab (antibody, V domains shown, parental mAb) VH: EVQLLESGGGLVQPGGSLRLSCTASGFTFSSYAMNWVRQAPGKGLEWVSAISGSGGTTFYADSVKGRFTISRDNSRTTLYLQMNSLRAEDTAVYYCAKDLGWSDSYYYYYGMDVWGQGTTVTVSS VL: DIQMTQFPSSLSASVGDRVTITCRASQGIRNDLGWYQQKPGKAPKRLIYAASRLHRGVPSRFSGSGSGTEFTLTISSLQPEDFATYYCLQHNSYPCSFGQGTKLEIK",Kd,[9],0.729 nM
"FIT017a DLL4 (demcizumab)/VEGF (bevcizumab) (bispecific antibody, human IgG1, kappa, leader left out) chain 1: not shown chain 2: QVQLVQSGAEVKKPGASVKISCKASGYSFTAYYIHWVKQAPGQGLEWIGYISSYNGATNYNQKFKGRVTFTTDTSTSTAYMELRSLRSDDTAVYYCARDYDYDVGMDYWGQGTLVTVSSASTKGPSVFPLAPSSKSTSGGTAALGCLVKDYFPEPVTVSWNSGALTSGVHTFPAVLQSSGLYSLSSVVTVPSSSLGTQTYICNVNHKPSNTKVDKKVEPKSC chain 3: not shown",Kd,[17],0.0365 nM
"anti-CD20 mAb Ofatumumab (antibody, V domains shown, parental mAb) VH: EVQLVESGGGLVQPGRSLRLSCAASGFTFNDYAMHWVRQAPGKGLEWVSTISWNSGSIGYADSVKGRFTISRDNAKKSLYLQMNSLRAEDTALYYCAKDIQYGNYYYGMDVWGQGTTVTVSS VL: EIVLTQSPATLSLSPGERATLSCRASQSVSSYLAWYQQKPGQAPRLLIYDASNRATGIPARFSGSGSGTDFTLTISSLEPEDFAVYYCQQRSNWPITFGQGTRLEIK",binding result,[18],no binding (tested: about 130 nM)
"FIT012b-Ig EGFR (panitumumab)/PD-L1 (1B12) (bispecific antibody, human IgG1, kappa, leader left out) chain 1: not shown chain 2: QVQLQESGPGLVKPSETLSLTCTVSGGSVSSGDYYWTWIRQSPGKGLEWIGHIYYSGNTNYNPSLKSRLTISIDTSKTQFSLKLSSVTAADTAIYYCVRDRVTGAFDIWGQGTMVTVSSASTKGPSVFPLAPSSKSTSGGTAALGCLVKDYFPEPVTVSWNSGALTSGVHTFPAVLQSSGLYSLSSVVTVPSSSLGTQTYICNVNHKPSNTKVDKKVEPKSC chain 3: not shown",Kd,[12],3.89 nM
"FIT012d-Ig EGFR (panitumumab)/PD-L1 (10A5) (bispecific antibody, leader left out) chain 1: not shown chain 2: QVQLQESGPGLVKPSETLSLTCTVSGGSVSSGDYYWTWIRQSPGKGLEWIGHIYYSGNTNYNPSLKSRLTISIDTSKTQFSLKLSSVTAADTAIYYCVRDRVTGAFDIWGQGTMVTVSSASTKGPSVFPLAPSSKSTSGGTAALGCLVKDYFPEPVTVSWNSGALTSGVHTFPAVLQSSGLYSLSSVVTVPSSSLGTQTYICNVNHKPSNTKVDKKVEPKSC chain 3: not shown",Kd,[13],0.58 nM
"FIT019b-Ig EGFR (Panitumumab)/HER3 (patritumab) (bispecific antibody, human IgG1, kappa, leader left out) chain 1: not shown chain 2: QVQLQESGPGLVKPSETLSLTCTVSGGSVSSGDYYWTWIRQSPGKGLEWIGHIYYSGNTNYNPSLKSRLTISIDTSKTQFSLKLSSVTAADTAIYYCVRDRVTGAFDIWGQGTMVTVSSASTKGPSVFPLAPSSKSTSGGTAALGCLVKDYFPEPVTVSWNSGALTSGVHTFPAVLQSSGLYSLSSVVTVPSSSLGTQTYICNVNHKPSNTKVDKKVEPKSC chain 3: not shown",Kd,[19],0.338 nM
